Source: patent US20220380446A1 (ABL BIO, published 2022)
Where two headings read alike, the source gives them in different places.

Legend:
[1] = target: T1, human α-synuclein pre-formed fibrils (Human Alpha Synuclein Pre-formed Fibrils Type II, StressMarq SPR-317) (human, UniProt P37840 1-140); assay: sandwich ELISA, antibody coated, α-syn PFF added, 7B7-biotin detection
Description: Specifically, the antibodies were diluted with PBS by six-fold serial dilution from 400 nM to 0.009 nM. The diluted antibodies were added to a 96-well plate at 100 μL/well for coating. The plate was sealed and incubated at 4° C. for 16 hours. After washing with phosphate-buffered saline with Tween® (PBS-T; 0.05% Tween® 20) five times, the plate was blocked with 5% BSA in PBS 200 μL/well at 37° C. for 2 hours. After washing with PBS-T five times, α-syn PFF (2 μg/mL, 100 μL/well in 2% BSA in PBS) was added to the plate and incubated at 37° C. for 2 hours. After washing with PBS-T five times, 7B7-biotin antibody (anti-α-syn antibody; 1 μg/mL/100 μL/well, in 2% BSA in PBS) was added and incubated at 37° C. for 2 hours. After washing with PBS-T five times, the plate was incubated with horseradish peroxidase (HRP)-bound streptavidin in PBS with 2% BSA (1:5000, 1 mg/mL stock, 20 ng/well, 100 μL/well) at 37° C. for 1 hour. After washing with PBS-T five times, 3,3′,5,5′-tetramethylbenzidine (TMB) (100 μL/well) was added and incubated at room temperature for 5 minutes. The reaction was stopped by the addition of 0.5 N H₂SO₄ (50 μL/well). Optical absorbance at 450 nm was measured by using a plate reader, with absorbance at 650 nm subtracted from the reading.

[2] = target: T2, human α-synuclein oligomers (Dopamine HCL Stabilized Human Recombinant Alpha Synuclein Oligomers, StressMarq … (human, UniProt P37840 1-140)); assay: sandwich ELISA, antibody coated, oligomeric α-syn added, 7B7-biotin detection
Description: Human α-syn oligomers from StressMarq (Dopamine HCL Stabilized Human Recombinant Alpha Synuclein Oligomers, SPR-466) was used as the oligomeric α-syn in the assay.
(§1) In this sandwich ELISA, test antibodies were diluted with PBS by five-fold serial dilution from 80 nM to 0.005 nM. The serially diluted antibodies were added to a 96-well plate at 100 μL/well for coating. The plate was sealed and incubated at 4° C. for 16 hours. After washing with PBS-T five times, the plate was blocked with 5% BSA in PBS 200 μL/well at 37° C. for 2 hours. After washing with PBS-T five times, oligomeric α-syn (2 μg/mL, 100 μL/well in 2% BSA in PBS) was added and incubated at 37° C. for 2 hours. After washing with PBS-T five times, 7B7-biotin antibody (1 μg/mL, 100 μL/well, in 2% BSA in PBS) were added and incubated at 37° C. for 2 hours. After washing with PBS-T five times, the plate was incubated with Streptavidin-HRP in 2% BSA in PBS (1:5000, 1 mg/mL stock, 20 ng/well, 100 μL/well) at 37° C. for 1 hour. After washing with PBS-T five times, TMB (100 μL/well) was added and incubated at RT for 5 minutes. The reaction was stopped by the addition of 0.5 N H₂SO₄ (50 μL/well).

[3] = target: T2, human α-synuclein oligomers (Dopamine …); assay: as above; remark: listed apart in the source
Description: as §1

[4] = target: T1, human α-synuclein pre-formed fibrils …; assay: SPR Biacore 'as described above', antibody captured, α-syn PFF analyte, 1:1 model
[5] = target: T1, human α-synuclein pre-formed fibrils …; assay: SPR Biacore T200, antibody captured on Protein A chip, α-syn PFF analyte, 1:1 model
Description: The equipment used was Biacore® (GE Healthcare, Model T200). Protein A (GE Healthcare, Cat: 29-1275-56) was used as a chip, 10 mM glycine-HCl pH 1.5 (GE Healthcare, Cat: BR-1003-54) was used as a regeneration buffer, and HBS-EP was used as a running buffer and an analyte dilution and sample dilution buffer. […] A capture phase was carried out at a contact time of 60 seconds and a flow rate of 30 μL/min was used for a stabilization period of 60 seconds, with the target resonance units (RU) of fibril set to 10 (theoretical). In an association phase, the association time was set to 60 seconds and a flow rate was set to 60 μL/min. In a dissociation phase, the dissociation time was set to 180 seconds, and a flow rate was set to 60 μL/min. In a regeneration phase, the flow rate was set to 30 μL/min, and the regeneration time was set to 60 seconds. A 1:1 binding model was used for fitting, and the Biacore® T200 Evaluation software (GE Healthcare) was used for the evaluation.

[6] = target: T1, human α-synuclein pre-formed fibrils …; assay: SPR (Biacore), file name 'Main-ProA', α-syn PFF as analyte (sample PFF-1), single-cycle kinetics, 1:1 Binding fit, 25 °C; Run01
[7] = target: T1, human α-synuclein pre-formed fibrils …; assay: SPR (Biacore), antibody captured on anti-hFab CM3 chip, α-syn PFF as analyte (sample PFF-1), single-cycle kinetics, 1:1 Binding fit, 25 °C; Run1
Description: (§2) The equipment used was Biacore®. Anti-hFab (Sigma, I5260-1ML) diluted in acetate buffer (pH 5.0) was immobilized on the surface of an CM3 chip (GE Healthcare) by amine coupling. […] All procedures in association and dissociation phases were done in single-cycle kinetics. A 1:1 binding model was used for fitting, and the Biacore® T200 Evaluation software was used for the evaluation.

[8] = target: T1, human α-synuclein pre-formed fibrils …; assay: SPR (Biacore), antibody captured on anti-hFab CM3 chip, α-syn PFF as analyte (sample PFF-2), single-cycle kinetics, 1:1 Binding fit, 25 °C; Run2
Description: as §2

B1: hu1E4(V1_VL1) x Grabody B (bispecific antibody, human IgG1, kappa)
heavy 1: not shown
heavy 2: not shown
light: DIVMTQTPLSLSVTPGQPASISCRSSQSLVHSNGNTYLHWYLQKPGQSPQLLIYKVSNRFSGVPDRFSGSGSGTDFTLKISRVEAEDVGVYYCSQSTHVPRTFGQGTKLEIKRTVAAPSVFIFPPSDEQLKSGTASVVCLLNNFYPREAKVQWKVDNALQSGNSQESVTEQDSKDSTYSLSSTLTLSKADYEKHKVYACEVTHQGLSSPVTKSFNRGEC
notes: Anti-α-syn/IGF1R bispecific; hole heavy chain (M428L) carries the anti-IGF1R scFv Grabody B at its C-terminus through a (G4S)3 linker; knob heavy chain (M428L) without scFv; also called hu1E4(V1 VL1) × Grabody B; 1E4(Ver.1_VL1) × Grabody B
For B1, the EC50 [1] was 0.334 nM, the EC50 [2] was 3.62 nM and the Saturation point [2] was 3.18. It also gave an EC50 [3] of 3.82 nM, a Kd [4] of 0.025 nM and a koff [4] of 0.000345 s⁻¹. The kon [4] was 1.4e+07 M⁻¹ s⁻¹, the Kd [5] was 0.0293 nM and the koff [5] was 0.000423 s⁻¹. It also gave a kon [5] of 1.45e+07 M⁻¹ s⁻¹, a koff [6] of 0.000472 s⁻¹ and a kon [6] of 1.35e+07 M⁻¹ s⁻¹. It also gave a koff [7] of 0.00067 s⁻¹, a kon [7] of 1.91e+07 M⁻¹ s⁻¹ and a koff [8] of 0.000743 s⁻¹. The kon [8] was 1.83e+07 M⁻¹ s⁻¹.
